Laboratory results as given in US7700329B2, “Methods for making simvastatin and intermediates” (priority 2003, dated 2010).
Values after ≈ are worked out from the molar mass of the structure shown.

Legend:
[1] = pH 8
physchem = settings: pH 9.5
[2] = Enzyme screen for hydrolysis of lovastatin or lovastatin acid; format: biochemical; settings: 2.5 mM substrate, 100 mM phosphate buffer/co-solvent pH 7 to 8, 30° C., 48 h; confirmed at 1 mM
Description: (§1) Any method for screening for enzymes for use in the methods of the invention, e.g., enzymes for the hydrolysis of lovastatin, lovastatin acid, 4-acetyl simvastatin or simvastatin, can be used, and, these methods are well known in the art. For example, in one exemplary set of screen conditions used to determine an enzyme(s) to be used in a method of the invention comprises use of 2.5 mM substrate, 100 mM phosphate buffer/co-solvent pH 7 to pH 8, 30° C., 48 h, with the following composition: (i) lovastatin or simvastatin in MTBE/buffer, (ii) lovastatin or simvastatin in toluene/buffer, (iii) lovastatin acid or simvastatin acid in 10% methanol/buffer. Screen results were confirmed at 1 mM substrate. […] SEQ ID NO:4 and SEQ ID NO:2 were further evaluated at 25, 50 and 100 mM lovastatin acid in 10% MeOH/buffer, pH 9, the more soluble lovastatin acid being used as substrate for convenience.

[3] = Enzyme screen for hydrolysis of simvastatin; format: biochemical; settings: 2.5 mM substrate, 100 mM phosphate buffer/co-solvent pH 7 to 8, 30° C., 48 h; confirmed at 1 mM
Description: as §1

[4] = Comparison of genomic clones for hydrolysis of lovastatin acid under standard conditions; format: biochemical; settings: same total protein concentration or same activity normalized against MUB
From the text: Genomic clones comprising sequences encoding enzymes having sequences as set forth in SEQ ID NO:4, SEQ ID NO:2, SEQ ID NO:6 (e.g., encoded by exemplary SEQ ID NO:3, SEQ ID NO:1, and SEQ ID NO:5, respectively), were compared for the hydrolysis of lovastatin acid under standard conditions (the same total protein concentration, or the same enzyme activity normalized against the fluorescent substrate, methylumbelliferyl butyrate (MUB)).

[5] = Large-scale hydrolysis of lovastatin, specific activity of esterase; format: biochemical; settings: 100 g scale, 0.5 M lovastatin
Description: The in situ hydrolysis of lovastatin with SEQ ID NO:4 was optimized such that insignificant amounts of NaCl generated: 0.85 g lovastatin in MeOH and equimolar NaOH added. Clarified lysate of E. coli containing SEQ ID NO:4 was added to lovastatin acid. […] See FIG. 27 for an illustration summary of the results.
The results of Response Surface Analysis (RSA) can be applied to large-scale hydrolysis of lovastatin, e.g., using a protocol as illustrated in FIG. 28: • Reaction performed successfully on 100 g scale (0.5 M); • 97.5% conversion in 27 h; • Productivity: x g/g esterase/h; • Specific activity: 0.084 μmol/mg esterase/min.

[6] = Heat pre-treatment of lovastatin esterase, then lovastatin hydrolysis; format: biochemical; settings: 60° C. for 30 min, centrifuged, supernatant used
From the text: Heat treatment has often been used as a convenient method to purify crude enzyme preparations when there is differential thermal stability between the desired enzyme and other contaminating proteins.

Q: For `CCC(C)(C)C(=O)O[C@H]1C[C@@H](C)C=C2C=C[C@H](C)[C@H](CC[C@@H]3C[C@@H](OC(C)=O)CC(=O)O3)[C@H]21` [4-acetyl simvastatin], which elimination [1] is on record?
A: Its elimination is 13%.

Q: Which solubility (physchem) does the source give for `C[C@H]1C=C2C=C[C@H](C)[C@H](CC[C@@H](O)C[C@@H](O)CC(=O)O)C2[C@@H](O)C1` (stereo partly drawn) [Triol acid] here?
A: Its solubility is about 200 mM (≈ 67.7 mg/mL).

B1: SEQ ID NO:4: novel lovastatin esterase, family VII esterase with SXXK motif, encoded by SEQ ID NO:3 (protein)
chain: MEIHGTCDPKFHLVRQEFERNLRERGEVGASVCVTLHGETVVDLWGGMARADTQTPWTAETVSIVFSSTKGATALCAHMLASRGQLDLDAPVATYWPEFAQAGKARIPVKMLLNHQAGLPAVRTPLPQGAYADWELMVNTLAKEEPFWEPGTRNGYHALTMGWLVGEVVRRVSGKSLGTFFQEEIARPLGLDFWIGLPAEQEARVAPMIAAEPDPQSLFFQEVAKPGALQSLVLLNSGGYMGAQPEYDSRAAHAAEIGAAGGITNARGLAGMYAPLACGGKLKGVELVSPDMLARMSRVASATGRDAVLMMPTRFALGFMKSMDNRREPAGVQDSALFGEEAFGHVGAGGSFGFADPKAGMSFGYTMNRMGLGAGLNPRGQSLVDATYRSLGYQSDASGAWT
modifications: Unkown; Soil sample
Q: What does the source list for B1?
A: activity for the hydrolysis of lovastatin or lovastatin acid [2]: active; activity for the hydrolysis of simvastatin [3]: showed activity; activity for hydrolysis of lovastatin acid compared among genomic clones [4]: best activity; Specific activity [5]: 0.084 μmol/mg esterase/min; activity of heat pre-treated versus untreated enzyme [6]: no difference in activity

B2: SEQ ID NO:2: feruloyl esterase encoded by SEQ ID NO:1 (protein)
chain: MSLCVIRFIAGTLVLVASVESAVAQQACADLMGLELPYTTITSAAVATEGPIPQPAIFGSTDPIVAPERCEVRAVTRPTKDSEIRIELWLPLSGWNGKYLQIGSGGWAGSINRTGLIGPLQRGYAVAATDNGHISEGLVPDASWAIGHPQKLIDFGYRAVHETSVQAKAILRAYFGRGQDLSYFSGCSNGGREALMEAQRYPEDFEGIIAGAPANNWSRLFTGFVWNERALADDPIPPAKLTAIQAAAIAACDTLDGVEDGLIENPRACSFDPRSMVCTADDASDCLTEGQVATLHRIYSGPTNPRTGERIFPGYPMGTEAVPGGWVPWIVSASSEVPSIQASFGNSYYGHAVFEQSNWDFRTLDFDQDVAFGDAKAGPVLNATNPDLRSFRANGGKLIQYHGWGDAAITAFSSIDYYENVRAFLDRFPDPRSENTDIDGFYRLFLVPGMGHCSGGIGPSSFGNGFRSARTDAEHDLLSALEAWVERDTAPERLIGTGTAVGDPTATLTRPLCPYPRTARYLGSGNSNDAANFECALPAGVQ
modifications: Unkown; Soil sample
Q: With B2 as the molecule, how does the “activity for the hydrolysis of lovastatin or lovastatin acid” value [2] read?
A: Its value is “active”.

B3: SEQ ID NO:6: feruloyl esterase encoded by SEQ ID NO:5 (protein)
chain: MRSAARISVAAVAFLCLLLTTRVSAQIVPAMECADLANQQLPNTTITSAQTVTTGSLTPPGSTNPITDLPPFCRVTGAIAPTSESHILFEVWLPLDKWNGKFAGVGNGGWAGIISFGALGSQLKRGYATASTNTGHEAAPGMNAARFAFEKPEQLIDFAYRSQHETALKAKALVQAFYGKPPEHSYFIGCSSGGYQGLMEAQRFPADYDGIVAGMPANNWTRLMAGDLDAILAVSVDPASHLPVSALGLLYRSVLAACDGIDGVVDGVLEDPRRCRFDPAVLMCKADQNPDGCLTPAQVEAARRIYGGLKDPKTGAQLYPGLAPGSEPFWPHRNPANPFPIPIAHYKWLVFADPNWDWRTFKFTDPADYQAFLNAEATYAPTLNATNPDLREFSRRGGRLIQYHGWNDQLIAPQNSIDYYESVLSFFGSGKQDRAQTVREVQSFYRLFMAPGMAHCGGGTGPNSFDMLDALEKWVEGGIAPERVLATRSINGVVDRLRPLCPYPQVAVYKGHGDTNDAANFVCRD
modifications: Unkown; Soil sample
Q: Which “activity for the hydrolysis of lovastatin or lovastatin acid” value [2] does the source give for B3 here?
A: The value was “active”.
